# Measurements taken from US20090155304A1 (OSEL, published 2009).
# B1: Lactobacillus-derived full-length APVT-CV-N (P51G) (other)
# chain: APVTLGKFSQTCYNSAIQGSVLTSTCERTNGGYNTSSIDLNSVIENVDGSLKWQGSNFIETCRNTQLAGSSELAAECKTRAQQFVSTKINLDDHIANIDGTLKYE
# Experiments:
# [1] = molecular target: gp120 of CCR5-tropic HIV-1 BaL (on cell-free virus) (HIV-1 BaL); assay: cell-based or functional assay
# [2] = molecular target: gp120 of CXCR4-tropic HIV-1 IIIB (on cell-free virus) (HIV-1 IIIB); assay: cell-based or functional assay
binder,measurement,setting,value
B1,"IC50, inhibition of CCR5-tropic HIVBaL infection (MAGI-R5-LTR-beta-gal attachment inhibition assay)",[1],0.3 nM
same,"IC50, inhibition of CXCR4-tropic HIVIIIB (HeLa-LTR-beta-gal X4-tropic attachment assay)",[2],< 3 nM
